Reference: patent US20040214774A1

Legend:
apoE3 (human) = apoE3 (human) (UniProt P02649); assay: cell-based or functional assay
apoE4 (human) [1] = molecular target: apoE4 (human) (UniProt P02649); assay: cell-based or functional assay
apoE4 (human) [2] = molecular target: apoE4 (human) (UniProt P02649); assay: competitive inhibition ELISA: lipidated apoE4 100 nM preincubated with Aβ12-28P (0-400 nM), added to Aβ1-40 coated wells; one-site competition fit

apoE4 (human), sequence (P02649 19-317 C130R limits assumed): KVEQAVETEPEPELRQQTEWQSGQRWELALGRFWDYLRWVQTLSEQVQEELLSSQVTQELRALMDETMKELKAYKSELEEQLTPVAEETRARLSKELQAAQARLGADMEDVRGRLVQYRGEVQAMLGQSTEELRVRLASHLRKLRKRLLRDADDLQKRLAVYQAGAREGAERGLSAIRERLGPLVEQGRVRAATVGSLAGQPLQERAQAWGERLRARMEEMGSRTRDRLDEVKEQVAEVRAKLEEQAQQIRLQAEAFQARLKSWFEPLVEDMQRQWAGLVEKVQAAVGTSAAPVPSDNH
apoE3 (human), sequence (P02649 19-317 limits assumed): as the sequence (P02649 19-317 C130R limits assumed) above, with R112C counted along it

With Aβ12-28P (peptide) as the substance, how does the relative reduction in Thioflavin-T fluorescence of Aβ1-42 with apoE3 after 24 h of incubation (apoE3 (human)) read?
Its relative reduction in Thioflavin-T fluorescence of Aβ1-42 with apoE3 after 24 h of incubation is 14.5%.

What about the relative reduction in Thioflavin-T fluorescence of Aβ1-42 with apoE3 by day six (apoE3 (human)) of the same substance?
The relative reduction in Thioflavin-T fluorescence of Aβ1-42 with apoE3 by day six was 48.3%.

What about the relative reduction in Thioflavin-T fluorescence of Aβ1-42 with apoE4 after 24 h of incubation (apoE4 (human) [1]) of the same substance?
Its relative reduction in Thioflavin-T fluorescence of Aβ1-42 with apoE4 after 24 h of incubation is 25.3%.

And the relative reduction in Thioflavin-T fluorescence of Aβ1-42 with apoE4 by day six (apoE4 (human) [1])?
Its relative reduction in Thioflavin-T fluorescence of Aβ1-42 with apoE4 by day six is 52.3%.

And the IC50 (apoE4 (human) [2])?
The IC50 was 36.7 nM.
